Source: patent US20240101959A1, “USE OF IL-2R-BETA-GAMMA AGONIST PEPTIDES IN CELL MANUFACTURING” (MEDIKINE, INC., priority 2022, published 2024)
Blank lines part the entries; values can stand above or below the binder they belong to.

Target: T1, hu-IL-2Rβ subunit (human, UniProt P14784 27-240, limits assumed)
T1 construct: also called human interleukin-2 receptor subunit β; CD122
T1 sequence (looked up): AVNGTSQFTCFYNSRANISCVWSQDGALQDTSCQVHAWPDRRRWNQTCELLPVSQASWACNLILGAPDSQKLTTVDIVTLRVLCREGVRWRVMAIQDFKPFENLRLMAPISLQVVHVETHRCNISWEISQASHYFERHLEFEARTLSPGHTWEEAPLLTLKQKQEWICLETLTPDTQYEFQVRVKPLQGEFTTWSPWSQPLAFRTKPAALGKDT
Assay: phage ELISA competition assay

B2: SEQ ID NO 459 (peptide)
peptide: MGDSSSWFPCWMAQLGELCDME
- IC50: < 100 µM

B5: SEQ ID NO 452 (peptide)
peptide: KWAWNPCYIARLGELCDLVEPE
- IC50: < 100 µM

B7: SEQ ID NO 446 (peptide)
peptide: SWRFLWQDCGRAHVGELCDL
- IC50: < 100 µM

B8: SEQ ID NO 465 (peptide)
peptide: QNASKGWYPCWIAHVGELCDWD
- IC50: < 100 µM

B9: SEQ ID NO 445 (peptide)
peptide: AEYSGRYDCYIAKVGELCDI
- IC50: < 100 µM

B11: SEQ ID NO 458 (peptide)
peptide: WFPCWMAKVGDLCDVDEHQDPS
- IC50: < 100 µM

B12: SEQ ID NO 454 (peptide)
peptide: PTLITWYDCLFAEVGELCDM
- IC50: < 100 µM

B14: SEQ ID NO 449 (peptide)
peptide: WYPCEFAQLGELCDLLPFPYPA
- IC50: < 100 µM

B15: SEQ ID NO 107 (peptide)
peptide: GRQQKGWYPCWLAQLGELCDME
- IC50: < 100 µM

B16: SEQ ID NO 457 (peptide)
peptide: FGGKMDWYPCWIANLGELCDLK
- IC50: < 100 µM

B20: SEQ ID NO 108 (peptide)
peptide: WLNRHLFNPCWMARLGELCDLE
- IC50: < 100 µM

B22: SEQ ID NO 450 (peptide)
peptide: SYMHDCFMAQVGDLCDRFIS
- IC50: < 100 µM

B24: SEQ ID NO 460 (peptide)
peptide: MFRYYPCWIASIGELCDLEWGV
- IC50: < 100 µM

B25: SEQ ID NO 451 (peptide)
peptide: WWPCWIAQVGELCDLEEESRES
- IC50: < 100 µM

B26: SEQ ID NO 81 (peptide)
peptide: WYPCWMALLGELCDQE
- IC50: < 100 µM

B27: SEQ ID NO 447 (peptide)
peptide: NRWWHPCWMARVGELCDLEPDA
- IC50: < 100 µM

Other lines, results leading:

- IC50: < 100 µM
B1: SEQ ID NO 466 (peptide)
peptide: HRWYPCWLAHLGELCDLDPMS

- IC50: < 100 µM
B3: SEQ ID NO 455 (peptide)
peptide: EISNWFLDCMFADVGDLCDL

- IC50: < 100 µM
B4: SEQ ID NO 444 (peptide)
peptide: LQIRKLWACRIDLVGPFCLL

- IC50: < 100 µM
B6: SEQ ID NO 461 (peptide)
peptide: ERRWYPCWLASVGELCDLDMGD

- IC50: < 100 µM
B10: SEQ ID NO 456 (peptide)
peptide: AQVWYPCWLAKVGELCDLDQWN

- IC50: < 100 µM
B13: SEQ ID NO 106 (peptide)
peptide: VPRANAWHPCWMAQLGELCDLE

- IC50: < 100 µM
B17: SEQ ID NO 453 (peptide)
peptide: WWPCWIADLGELCDLEGPPRGR

- IC50: < 100 µM
B18: SEQ ID NO 464 (peptide)
peptide: SLAHRSWYPCWLAQVGELCDLD

- IC50: < 100 µM
B19: SEQ ID NO 467 (peptide)
peptide: FYPCWIAFVGELCDLE

- IC50: < 100 µM
B21: SEQ ID NO 448 (peptide)
peptide: WWPCWVAKLGELCDLEGDASRV

- IC50: < 100 µM
B23: SEQ ID NO 497 (peptide)
peptide: CYMHDCFMAQVGDLCDRFIS

- IC50: < 100 µM
B28: SEQ ID NO 463 (peptide)
peptide: RWDYWPCYIAQVGELCDLEVYE
